Reference: paper PMC3032389

Molecular target: NMDA receptor NR1-1a subunit, full length (rat)
Experiment: co-IP

## C-terminal Src kinase (Csk) (from UniProt P41240 1-450) (enzyme)
  Csk co-precipitated with NR1 after PP2 (10 μM), percent of that without PP2: 48%
